According to paper PMC7295778:
Blank lines part the entries; values can stand above or below the substance they belong to.

Assays:
[1] = biological target: KirBac3.1 A133C-T136C (Cys-less background C262S, C71V, C119V) crosslinked with dibromobimane (UniProt D9N164); assay: native MS; 200 mM ammonium acetate pH 8.0, 0.5% C8E4; Q-ToF and QExactive; collision-induced dissociation in the gas phase on the Q-ToF
[2] = biological target: KirBac3.1 A133C-T136C (Cys-less background C262S, C71V, C119V) crosslinked with dibromobimane (UniProt D9N164); assay: cross-linking; purified cysteine-pair mutants at 0.03-4 mg/ml in 20 mM TRIS pH 8.0, 150 mM KCl, 0.02% DDM; MTS-1-MTS 0.5 mM, dibromobimane 2.5 mM or CuSO4 1 mM, room temperature, 30 min; read by SDS-PAGE
[3] = biological target: KirBac3.1 S129C-F135C (Cys-less background C262S, C71V, C119V) crosslinked with dibromobimane (UniProt D9N164); assay: native MS; 200 mM ammonium acetate pH 8.0, 0.5% C8E4; Q-ToF and QExactive; collision-induced dissociation in the gas phase on the Q-ToF
[4] = biological target: KirBac3.1 S129C-F135C (Cys-less background C262S, C71V, C119V) crosslinked with dibromobimane (UniProt D9N164); assay: cross-linking; purified cysteine-pair mutants at 0.03-4 mg/ml in 20 mM TRIS pH 8.0, 150 mM KCl, 0.02% DDM; MTS-1-MTS 0.5 mM, dibromobimane 2.5 mM or CuSO4 1 mM, room temperature, 30 min; read by SDS-PAGE
[5] = biological target: KirBac3.1 A133C-T136C (Cys-less background C262S, C71V, C119V) crosslinked with MTS-1-MTS (UniProt D9N164); assay: native MS; 200 mM ammonium acetate pH 8.0, 0.5% C8E4; Q-ToF and QExactive; collision-induced dissociation in the gas phase on the Q-ToF
[6] = biological target: KirBac3.1 A133C-T136C (Cys-less background C262S, C71V, C119V) crosslinked with MTS-1-MTS (UniProt D9N164); assay: cross-linking; purified cysteine-pair mutants at 0.03-4 mg/ml in 20 mM TRIS pH 8.0, 150 mM KCl, 0.02% DDM; MTS-1-MTS 0.5 mM, dibromobimane 2.5 mM or CuSO4 1 mM, room temperature, 30 min; read by SDS-PAGE
[7] = biological target: KirBac3.1 S129C-F135C (Cys-less background C262S, C71V, C119V), disulfide-linked (UniProt D9N164); assay: native MS; 200 mM ammonium acetate pH 8.0, 0.5% C8E4; Q-ToF and QExactive; collision-induced dissociation in the gas phase on the Q-ToF
[8] = biological target: KirBac3.1 S129C-F135C (Cys-less background C262S, C71V, C119V), disulfide-linked (UniProt D9N164); assay: cross-linking; purified cysteine-pair mutants at 0.03-4 mg/ml in 20 mM TRIS pH 8.0, 150 mM KCl, 0.02% DDM; MTS-1-MTS 0.5 mM, dibromobimane 2.5 mM or CuSO4 1 mM, room temperature, 30 min; read by SDS-PAGE
[9] = biological target: KirBac3.1 A133C-T136C (Cys-less background C262S, C71V, C119V), disulfide-linked (UniProt D9N164); assay: native MS; 200 mM ammonium acetate pH 8.0, 0.5% C8E4; Q-ToF and QExactive; collision-induced dissociation in the gas phase on the Q-ToF
[10] = biological target: KirBac3.1 A133C-T136C (Cys-less background C262S, C71V, C119V), disulfide-linked (UniProt D9N164); assay: cross-linking; purified cysteine-pair mutants at 0.03-4 mg/ml in 20 mM TRIS pH 8.0, 150 mM KCl, 0.02% DDM; MTS-1-MTS 0.5 mM, dibromobimane 2.5 mM or CuSO4 1 mM, room temperature, 30 min; read by SDS-PAGE
[11] = biological target: KirBac3.1 S129C-F135C (Cys-less background C262S, C71V, C119V) crosslinked with MTS-1-MTS (UniProt D9N164); assay: native MS; 200 mM ammonium acetate pH 8.0, 0.5% C8E4; Q-ToF and QExactive; collision-induced dissociation in the gas phase on the Q-ToF
[12] = biological target: KirBac3.1 S129C-F135C (Cys-less background C262S, C71V, C119V) crosslinked with MTS-1-MTS (UniProt D9N164); assay: cross-linking; purified cysteine-pair mutants at 0.03-4 mg/ml in 20 mM TRIS pH 8.0, 150 mM KCl, 0.02% DDM; MTS-1-MTS 0.5 mM, dibromobimane 2.5 mM or CuSO4 1 mM, room temperature, 30 min; read by SDS-PAGE

stoichiometry N [1]: 4
stoichiometry N [2]: 4
Substance: KirBac3.1 A133C-T136C (Cys-less background C262S, C71V, C119V) crosslinked with dibromobimane (from UniProt D9N164 1-295) (natural protein)

stoichiometry N [5]: 4
stoichiometry N [6]: 4
Substance: KirBac3.1 A133C-T136C (Cys-less background C262S, C71V, C119V) crosslinked with MTS-1-MTS (from UniProt D9N164 1-295) (natural protein)

stoichiometry N [11]: 4
stoichiometry N [12]: 4
Substance: KirBac3.1 S129C-F135C (Cys-less background C262S, C71V, C119V) crosslinked with MTS-1-MTS (from UniProt D9N164 1-295) (natural protein)

Second part, the substance before the results:

Substance: KirBac3.1 S129C-F135C (Cys-less background C262S, C71V, C119V) crosslinked with dibromobimane (from UniProt D9N164 1-295) (natural protein)
stoichiometry N [3]: 4
stoichiometry N [4]: 4

Substance: KirBac3.1 S129C-F135C (Cys-less background C262S, C71V, C119V), disulfide-linked (from UniProt D9N164 1-295) (natural protein)
stoichiometry N [7]: 4
stoichiometry N [8]: 4

Substance: KirBac3.1 A133C-T136C (Cys-less background C262S, C71V, C119V), disulfide-linked (from UniProt D9N164 1-295) (natural protein)
stoichiometry N [9]: 4
stoichiometry N [10]: 4
